Broadly, the Kd is the constant that tells how readily two partners part at equilibrium.

The target in experiment [1] is native CaENO1 of Candida albicans (alpha-enolase on the cell surface and in cell lysates) (Candida albicans) (UniProt P30575). Description: flow cytometry on C. albicans SC 5314 cells, 100 ug antibody (negative control). (A flow cytometer gives signals particle by particle.)
The target of experiment [2] is T1, mENO1 (purified recombinant mouse ENO1) (mouse, UniProt P17182 1-434, limits assumed).
T1 construct: not shown: His tag, 'expressed and purified in the same way' as His-CaENO1
In words: Western blot on purified ENO1 proteins. (In western blotting, separated proteins are transferred to a membrane and probed.)

Experiment [3] has as its target T2, hENO1 (purified recombinant human ENO1) (human, UniProt P06733 1-434, limits assumed).
T2 construct: not shown: His tag, 'expressed and purified in the same way' as His-CaENO1
Description: Western blot on purified ENO1 proteins.

For experiment [4], the target named is T3, His-CaENO1 (recombinant Candida albicans alpha-enolase with His tag) (Candida albicans, UniProt P30575 1-440).
T3 construct: Expressed from pQE30-CaENO1 in E. coli BL21, purified on Ni resin, about 49 kDa; also called recombinant CaENO1 protein; purified CaENO1; not shown: His tag from the pQE30 vector
T3 sequence (looked up): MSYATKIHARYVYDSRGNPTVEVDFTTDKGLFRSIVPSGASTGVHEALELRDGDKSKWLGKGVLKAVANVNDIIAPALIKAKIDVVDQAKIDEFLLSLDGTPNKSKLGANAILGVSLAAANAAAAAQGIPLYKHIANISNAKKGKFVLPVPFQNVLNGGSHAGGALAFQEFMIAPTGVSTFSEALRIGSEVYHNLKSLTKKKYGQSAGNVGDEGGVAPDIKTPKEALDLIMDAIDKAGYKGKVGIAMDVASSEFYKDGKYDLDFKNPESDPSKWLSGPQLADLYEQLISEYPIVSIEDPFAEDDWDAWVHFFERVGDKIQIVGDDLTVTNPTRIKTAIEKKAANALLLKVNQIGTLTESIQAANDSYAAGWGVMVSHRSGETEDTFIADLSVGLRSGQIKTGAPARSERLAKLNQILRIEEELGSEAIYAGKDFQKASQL
In words: ELISA, serial dilution of CaS1 scFv on coated His-CaENO1. In general terms: ELISA stands for enzyme-linked immunosorbent assay.

The target in experiment [5] is T3, His-CaENO1 (recombinant Candida …). In words: ELISA, serial dilution of CaS1 scFv on coated recombinant CaENO1; concentration at 50% of OD.
For experiment [6] the target is unchanged. Description: competitive ELISA, serial dilution of free CaENO1 mixed with 1 µg/mL CaS1 scFv, then added to coated CaENO1; printed as KD of CaS1 scFv.
The target is the same in experiment [7]. In words: competitive ELISA, serial dilution of free His-CaENO1 mixed with 1 µg/mL CaS1, then added to coated His-CaENO1; printed as KD of CaS1 scFv.

T1 sequence (P17182 whole entry): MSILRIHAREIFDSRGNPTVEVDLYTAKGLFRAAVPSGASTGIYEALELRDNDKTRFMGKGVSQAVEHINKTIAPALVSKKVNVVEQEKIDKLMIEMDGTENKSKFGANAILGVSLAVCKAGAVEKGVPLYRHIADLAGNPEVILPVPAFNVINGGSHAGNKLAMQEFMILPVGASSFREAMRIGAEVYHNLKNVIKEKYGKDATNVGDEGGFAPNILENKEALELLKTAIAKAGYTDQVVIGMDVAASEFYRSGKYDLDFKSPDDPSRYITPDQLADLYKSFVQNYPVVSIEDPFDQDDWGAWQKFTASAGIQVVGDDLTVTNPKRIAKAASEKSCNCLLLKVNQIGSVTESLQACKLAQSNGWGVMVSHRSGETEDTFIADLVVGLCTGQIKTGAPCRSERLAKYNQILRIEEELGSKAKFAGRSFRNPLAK
T2 sequence (P06733 whole entry): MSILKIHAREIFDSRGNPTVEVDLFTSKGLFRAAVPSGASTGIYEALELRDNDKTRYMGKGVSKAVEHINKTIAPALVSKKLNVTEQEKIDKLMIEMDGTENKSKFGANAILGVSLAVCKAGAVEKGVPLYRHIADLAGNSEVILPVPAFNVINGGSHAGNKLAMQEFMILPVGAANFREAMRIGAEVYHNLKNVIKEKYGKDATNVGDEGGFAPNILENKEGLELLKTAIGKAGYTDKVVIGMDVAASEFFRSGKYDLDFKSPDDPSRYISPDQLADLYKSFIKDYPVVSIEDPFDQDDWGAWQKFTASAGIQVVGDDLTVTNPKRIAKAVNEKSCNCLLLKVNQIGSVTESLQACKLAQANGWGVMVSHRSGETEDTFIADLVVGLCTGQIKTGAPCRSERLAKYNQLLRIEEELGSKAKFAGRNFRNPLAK

As for control scFv (irrelevant scFv), in experiment [1], the % FITC fluorescence reaction stood at 23%.

B1: CaS1 scFv (anti-CaENO1 scFv monoclonal antibody) (scFv)
scFv: ALTQPSSVSANLGGTVKITCSGGSGSYGWYQQKSPGSAPVTVIYSNNQRPSNIPSRFSGSPSGSTGTLTITGVQADDEAVYFCGSRDSSYVGVFGAGTTLTVLGQSSRSSTVTLDESGGGLQTPRGALSLVCKASGFTFIDYGMQWVRQAPGKGLEWVAGIGSSGSSTNYGAAVKGRATISRDDGQSTVRLQLNNLRAEDTGTYYCAKSAGGYCVNGAGCNGGSIDAWGHGTEVIVSS
notes: Chicken scFv from a phage library in pComb3X, expressed in E. coli, purified on Ni Sepharose; also called scFv CaS1; His-CaS1 scFv; not shown: His tag (and HA tag) from the pComb3X vector
Regarding B1, the binding result in experiment [2] and in experiment [3] was “binds” each time. For the same molecule, the Kd was determined as 18.8 nM in experiment [4], 0.498 µg/mL in experiment [5], 4.45 µg/mL in experiment [6] and 89 nM in experiment [7].

The values are drawn from patent US20180319873A1 (TAIPEI MEDICAL UNIVERSITY, published 2018).
